The source of these data is PMC7643339.

The target in data set [1] is mouse TLR9 ectodomain, uncleaved (without proteolytic activation) (mouse) (UniProt Q9EQU3). As to the kind of experiment: SEC; Superdex 200 10/300, 10 mM Tris pH 7.4, 0.15 M NaCl, no oligonucleotide; last step of the purification. (In gel filtration, larger molecules generally elute earlier.)
The target in data set [2] is T1, mTLR9-ECD, GluC-cleaved (mouse, UniProt Q9EQU3 26-818).
T1 sequence: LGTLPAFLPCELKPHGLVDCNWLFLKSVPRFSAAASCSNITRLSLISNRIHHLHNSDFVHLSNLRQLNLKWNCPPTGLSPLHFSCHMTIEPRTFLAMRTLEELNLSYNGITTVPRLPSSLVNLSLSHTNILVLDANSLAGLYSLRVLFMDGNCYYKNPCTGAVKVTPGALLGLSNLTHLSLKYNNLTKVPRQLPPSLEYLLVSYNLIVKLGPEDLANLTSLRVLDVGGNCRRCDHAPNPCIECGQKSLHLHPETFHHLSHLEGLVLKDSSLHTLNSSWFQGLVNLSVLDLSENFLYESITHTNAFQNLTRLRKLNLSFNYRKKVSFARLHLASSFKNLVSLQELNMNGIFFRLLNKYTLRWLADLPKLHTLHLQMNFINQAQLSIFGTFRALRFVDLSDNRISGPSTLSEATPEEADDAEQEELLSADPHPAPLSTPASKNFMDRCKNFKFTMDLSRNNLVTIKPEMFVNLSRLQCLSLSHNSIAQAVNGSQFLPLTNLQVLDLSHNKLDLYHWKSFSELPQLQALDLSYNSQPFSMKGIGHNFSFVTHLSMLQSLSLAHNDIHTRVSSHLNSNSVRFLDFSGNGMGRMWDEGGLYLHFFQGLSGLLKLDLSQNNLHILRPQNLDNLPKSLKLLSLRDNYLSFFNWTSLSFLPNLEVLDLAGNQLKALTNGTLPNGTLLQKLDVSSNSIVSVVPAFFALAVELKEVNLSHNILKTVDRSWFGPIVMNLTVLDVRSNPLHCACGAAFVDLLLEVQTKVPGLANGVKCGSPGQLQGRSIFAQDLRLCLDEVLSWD
Put plainly: fluorescence anisotropy; 1:1 fit; Anisotropy: 2 or 5 nM Alexa 488 oligo, protein to 100 nM; competition in 10 mM MES pH 6.0, 0.15 M NaCl, room temperature (direct titration buffer not separately). For orientation: In fluorescence polarisation assays a small probe gives low polarisation when free and higher when bound to something large.

For data set [3], the target named is T1, mTLR9-ECD, GluC-cleaved. As to the kind of experiment: competition; Cheng-Prusoff; vs Alexa 488 1668-12mer; Anisotropy: 2 or 5 nM Alexa 488 oligo, protein to 100 nM; competition in 10 mM MES pH 6.0, 0.15 M NaCl, room temperature (direct titration buffer not separately).
For data set [4], the target named is T1, mTLR9-ECD, GluC-cleaved. Put plainly: competition; vs Alexa 488 1668-12mer; Anisotropy: 2 or 5 nM Alexa 488 oligo, protein to 100 nM; competition in 10 mM MES pH 6.0, 0.15 M NaCl, room temperature (direct titration buffer not separately).
In data set [5] the target is T1, mTLR9-ECD, GluC-cleaved. Put plainly: fluorescence anisotropy; apparent, 1:1 fit; SI text gives 9.2 nM; Anisotropy: 2 or 5 nM Alexa 488 oligo, protein to 100 nM; competition in 10 mM MES pH 6.0, 0.15 M NaCl, room temperature (direct titration buffer not separately).
The target of data set [6] is T2, mTLR9-ECD W96A/Y132A (site A mutant) (mouse, UniProt Q9EQU3 26-818, W96A;Y132A).
T2 sequence: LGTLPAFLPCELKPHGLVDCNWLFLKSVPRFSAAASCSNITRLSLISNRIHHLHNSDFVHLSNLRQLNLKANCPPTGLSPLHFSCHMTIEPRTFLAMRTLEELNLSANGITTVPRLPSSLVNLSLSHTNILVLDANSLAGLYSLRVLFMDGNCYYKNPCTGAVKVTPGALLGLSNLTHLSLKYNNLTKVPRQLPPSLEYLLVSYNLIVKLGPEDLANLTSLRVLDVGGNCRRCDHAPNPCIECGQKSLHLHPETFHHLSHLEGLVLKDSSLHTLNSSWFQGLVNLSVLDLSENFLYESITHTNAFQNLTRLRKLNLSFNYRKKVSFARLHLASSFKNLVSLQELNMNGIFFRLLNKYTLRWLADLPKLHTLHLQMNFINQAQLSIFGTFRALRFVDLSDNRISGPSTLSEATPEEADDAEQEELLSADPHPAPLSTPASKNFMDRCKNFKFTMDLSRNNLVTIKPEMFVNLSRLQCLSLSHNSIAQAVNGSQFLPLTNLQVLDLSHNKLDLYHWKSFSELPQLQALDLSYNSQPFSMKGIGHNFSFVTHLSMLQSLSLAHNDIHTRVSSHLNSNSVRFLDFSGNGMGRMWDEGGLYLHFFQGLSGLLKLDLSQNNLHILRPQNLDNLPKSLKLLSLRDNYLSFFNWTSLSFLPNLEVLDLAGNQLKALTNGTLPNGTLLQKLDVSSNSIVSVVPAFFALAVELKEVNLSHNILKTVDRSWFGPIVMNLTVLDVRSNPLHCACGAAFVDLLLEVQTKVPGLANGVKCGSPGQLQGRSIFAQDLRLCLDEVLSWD
As to the kind of experiment: mass photometry; a fraction dimerizes with ligand; Anisotropy: 2 or 5 nM Alexa 488 oligo, protein to 100 nM; competition in 10 mM MES pH 6.0, 0.15 M NaCl, room temperature (direct titration buffer not separately).

The target of data set [7] is T3, mTLR9-ECD E617A/H642A (site B mutant) (mouse, UniProt Q9EQU3 26-818, E617A;H642A).
T3 sequence: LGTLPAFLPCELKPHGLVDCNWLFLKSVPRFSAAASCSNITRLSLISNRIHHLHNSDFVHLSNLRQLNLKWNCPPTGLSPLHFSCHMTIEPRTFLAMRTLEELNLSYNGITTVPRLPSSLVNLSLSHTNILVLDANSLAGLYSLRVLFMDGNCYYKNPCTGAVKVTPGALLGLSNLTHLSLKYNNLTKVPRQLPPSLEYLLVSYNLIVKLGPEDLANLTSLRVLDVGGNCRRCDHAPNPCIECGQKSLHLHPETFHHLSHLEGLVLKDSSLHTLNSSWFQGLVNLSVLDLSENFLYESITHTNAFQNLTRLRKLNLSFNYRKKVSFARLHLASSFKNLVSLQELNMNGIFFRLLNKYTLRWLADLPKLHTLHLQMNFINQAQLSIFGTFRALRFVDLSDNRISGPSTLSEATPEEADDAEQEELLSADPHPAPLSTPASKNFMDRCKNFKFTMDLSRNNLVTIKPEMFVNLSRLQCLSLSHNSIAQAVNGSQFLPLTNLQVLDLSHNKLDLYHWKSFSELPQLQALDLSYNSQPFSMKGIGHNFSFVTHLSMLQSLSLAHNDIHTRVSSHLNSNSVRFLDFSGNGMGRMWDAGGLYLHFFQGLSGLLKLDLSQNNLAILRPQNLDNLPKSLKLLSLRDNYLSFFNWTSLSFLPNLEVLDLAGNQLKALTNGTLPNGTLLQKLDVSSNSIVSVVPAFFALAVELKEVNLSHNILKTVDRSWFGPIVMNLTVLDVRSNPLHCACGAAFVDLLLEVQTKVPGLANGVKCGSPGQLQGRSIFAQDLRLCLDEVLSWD
Put plainly: fluorescence anisotropy; 1:1 fit; reports site A (KA); Anisotropy: 2 or 5 nM Alexa 488 oligo, protein to 100 nM; competition in 10 mM MES pH 6.0, 0.15 M NaCl, room temperature (direct titration buffer not separately).

Data set [8] addresses T1, mTLR9-ECD, GluC-cleaved. Put plainly: fluorescence anisotropy; apparent, 1:1 fit; Anisotropy: 2 or 5 nM Alexa 488 oligo, protein to 100 nM; competition in 10 mM MES pH 6.0, 0.15 M NaCl, room temperature (direct titration buffer not separately).
In another data set the target is T4, mTLR9-ECD, uncleaved (mouse, UniProt Q9EQU3 26-818).
T4 sequence: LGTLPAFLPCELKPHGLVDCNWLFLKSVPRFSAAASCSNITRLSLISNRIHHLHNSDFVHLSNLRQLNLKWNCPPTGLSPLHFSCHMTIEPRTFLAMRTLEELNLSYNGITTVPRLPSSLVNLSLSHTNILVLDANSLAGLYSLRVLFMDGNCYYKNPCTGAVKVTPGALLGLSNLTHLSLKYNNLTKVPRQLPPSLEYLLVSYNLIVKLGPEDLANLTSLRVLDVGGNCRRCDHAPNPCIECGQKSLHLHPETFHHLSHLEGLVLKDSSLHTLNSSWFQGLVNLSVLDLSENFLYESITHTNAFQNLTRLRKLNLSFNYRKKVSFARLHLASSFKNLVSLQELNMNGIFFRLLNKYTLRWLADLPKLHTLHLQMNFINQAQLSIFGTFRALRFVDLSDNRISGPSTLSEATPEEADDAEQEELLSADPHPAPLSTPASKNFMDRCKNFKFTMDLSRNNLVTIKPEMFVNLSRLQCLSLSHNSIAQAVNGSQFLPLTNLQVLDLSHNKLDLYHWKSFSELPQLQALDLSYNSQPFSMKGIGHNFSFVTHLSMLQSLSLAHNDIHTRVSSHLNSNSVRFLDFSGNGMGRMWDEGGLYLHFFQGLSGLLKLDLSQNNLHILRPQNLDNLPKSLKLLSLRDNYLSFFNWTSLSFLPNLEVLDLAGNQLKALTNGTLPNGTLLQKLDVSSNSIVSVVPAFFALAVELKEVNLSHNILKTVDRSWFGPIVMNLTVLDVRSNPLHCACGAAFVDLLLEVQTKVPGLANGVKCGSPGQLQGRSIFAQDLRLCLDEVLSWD
As to the kind of experiment: fluorescence anisotropy; 1:1 fit; uncleaved; Anisotropy: 2 or 5 nM Alexa 488 oligo, protein to 100 nM; competition in 10 mM MES pH 6.0, 0.15 M NaCl, room temperature (direct titration buffer not separately).

As for “mouse TLR9 ectodomain, uncleaved (without proteolytic activation) (from UniProt Q9EQU3 26-818) (domain or fragment)”, the stoichiometry N (usually a count of units in the complex or per binding partner) in data set [1] worked out at 2.

As to CCTGGATGGGAA (ssDNA) [4084 (printed 4048 in Table 1; Alexa 488)], the Kd with mTLR9-ECD, GluC-cleaved [2] stood at 29 nM.

In the case of CATGACGTTCCT (ssDNA) [1668-12mer, unlabeled], the Ki – broadly, the dissociation constant of the complex between target and ligand, obtained from inhibition or displacement – with mTLR9-ECD, GluC-cleaved [3] was 8 nM. The half-maximal inhibitory concentration (IC50) – broadly, the concentration needed to halve the response being measured – with mTLR9-ECD, GluC-cleaved [4] was about 10 nM.

With CATGACGTTCCT (ssDNA) [1668-12mer (Alexa 488)], the Kd with mTLR9-ECD, GluC-cleaved [5] is 11 nM.

For TCCATGACGTTCCTGATGCT (ssDNA) [1668, unlabeled], the binding result in data set [6] is reported as “binds”.

Take TCCATGACGTTCCTGATGCT (ssDNA) [1668 (Alexa 488)]: the Kd in [7] was found to be 40 nM; in the data set with mTLR9-ECD, GluC-cleaved [8] it was 2.8 nM; in the data set with mTLR9-ECD, uncleaved it was 12 nM.

Take TCCTTTCGTTTTTTTTTTTTTTT (ssDNA) [minM (Alexa 488)]: the Kd with mTLR9-ECD, GluC-cleaved [8] amounted to 3.2 nM.
